The text below walks through data of PMC11674828.

Substrate in the data set: N[C@@H](CC(=O)O)C(=O)O
The data set can be described thus: purified protein. Particulars: pH 8.0.

B1: (Thermus thermophilus HB8) (protein)
chain 1: MKRVMFHAKIHRATVTQADLHYVG
chain 2: SVTVDQDLLDAAGILPFEQVDIYDITNGARLTTYALPGERGSGVIGINGAAAHLVKPGDLVILVAYGVFDEEEARNLKPTVVLVDERNRILEVRKG
As for B1, the Km – broadly, the concentration of substrate that gives half-maximal velocity – was found to be 8.5 ± 0.1 mM; the kcat (as a rule, the maximal rate divided by the concentration of active sites) is 2.2 s⁻¹; the kcat/Km (commonly the turnover number divided by the Michaelis constant) worked out at 260 M⁻¹ s⁻¹.

B2: (Corynebacterium glutamicum ATCC 13032) (protein)
chain 1: MLRTILGSKIHRATVTQADLDYVG
chain 2: SVTIDADLVHAAGLIEGEKVAIVDITNGARLETYVIVGDAGTGNICINGAAAHLINPGDLVIIMSYLQATDAEAKAYEPKIVHVDADNRIVALGNDLAEALPGSGLLTSRSI
As to B2, the Km is 4.3 ± 0.2 mM, the kcat stood at 2.8 s⁻¹ and the kcat/Km is 650 M⁻¹ s⁻¹.

B3: (Escherichia coli K-12) (protein)
chain 1: MIRTMLQGKLHRVKVTHADLHYEG
chain 2: SCAIDQDFLDAAGILENEAIDIWNVTNGKRFSTYAIAAERGSRIISVNGAAAHCASVGDIVIIASFVTMPDEEARTWRPNVAYFEGDNEMKRTAKAIPVQVA
As for B3, the Km is 7.9 ± 0.1 mM, the kcat was 1.4 s⁻¹ and the kcat/Km was 180 M⁻¹ s⁻¹.
